Each binder was assayed against T1, HLA-A1 (A*0101) (human) (assay: cell competition vs YLEPAC(FI)AKY, stripped CAA B-LCL, FACS).
T1 construct: Acid-stripped B-LCL

IC50 [µM] | Binder
2 | SLQCLQALY (also called start 294) [PRAME peptide SLQCLQALY]
> 1 | CSQLTTLSFY (also called start 405) [PRAME peptide CSQLTTLSFY]
1 | FLSLQCLQALY (also called start 292) [PRAME peptide FLSLQCLQALY]
1 | LSHIHASSY [PRAME peptide LSHIHASSY]
2 | GTLHLERLAY (also called start 453) [PRAME peptide GTLHLERLAY]
3 | YISPEKEEQY (also called start 275) [PRAME peptide YISPEKEEQY]

The binders below were run against T2, HLA-A3 (A*0301) (human) (assay: cell competition vs KVFPC(FI)ALINK, stripped EKR B-LCL, FACS).
T2 construct: Acid-stripped B-LCL

IC50 [µM] | Binder
< 1 | CTWKLPTLAK (also called start 242) [PRAME peptide CTWKLPTLAK]
1 | RLAYLHARLR (also called start 459) [PRAME peptide RLAYLHARLR]
< 1 | SMSVWTSPR (also called PRA16-24; start 16) [PRAME peptide SMSVWTSPR]
4 | HLIGLSNLTH (also called start 429) [PRAME peptide HLIGLSNLTH]
< 1 | CLPLGVLMK (also called start 80) [PRAME peptide CLPLGVLMK]

What follows are binders tested against T3, HLA-B8 (B*0801) (human) (assay: competition vs FLRGRAC(FI)GL on stripped B-LCL, FACS).
T3 construct: HLA class I on acid-stripped EBV-transformed B cells (B-LCL)

IC50 [µM] | Binder
1.67 | QMINLRRLLL [PRAME 258-267 QMINLRRLLL]
< 1 | INLRRLLL [PRAME 260-267 INLRRLLL]
< 1 | MINLRRLL [PRAME 259-266 MINLRRLL]

The binders below were run against T4, HLA-B61 (B*4002) (human) (assay: competition vs GEFGGC(FI)GSV on stripped B-LCL, FACS).
T4 construct: HLA class I on acid-stripped EBV-transformed B cells (B-LCL)

IC50 [µM] | Binder
< 1 | LETFKAVL [PRAME 94-101 LETFKAVL]
< 1 | RELFPPLFMA [PRAME 50-59 RELFPPLFMA]
< 1 | DEALAIAAL [PRAME 37-45 DEALAIAAL]
< 1 | RELFPPLFM [PRAME 50-58 RELFPPLFM]

These binders were tested against T5, HLA-B35 (B*3501) (human) (assay: cell competition vs NPDIVC(FI)YQY, stripped BVR B-LCL, FACS).
T5 construct: Acid-stripped B-LCL

IC50 [µM] | Binder
< 1 | EPILCPCFM (also called start 499) [PRAME peptide EPILCPCFM]
2.6 | GACDELFSY (also called start 186) [PRAME peptide GACDELFSY]
< 1 | LPTLAKFSPY (also called start 246) [PRAME peptide LPTLAKFSPY]
2.83 | QPFIPVEVL (also called start 170) [PRAME peptide QPFIPVEVL]
< 1 | LPRELFPPL (also called start 48) [PRAME peptide LPRELFPPL]
1.58 | LPRELFPPLF (also called start 48) [PRAME peptide LPRELFPPLF]
1.98 | SPYLGQMINL [PRAME peptide SPYLGQMINL]
< 1 | FPPLFMAAF (also called start 53) [PRAME peptide FPPLFMAAF]
2.24 | IPVEVLVDL (also called start 173) [PRAME peptide IPVEVLVDL]

These binders were tested against T6, HLA-A1 (A*0101) (human) (assay: cellular competition binding assay on acid-stripped B-LCL CAA, flow cytometry; competitor Fl-labeled reference peptide YLEPAC(Fl)AKY).
T6 construct: MHC class I molecule on mild-acid-stripped EBV-transformed B cells (CAA)

IC50 [µM] | Binder
< 1 | LSNLTHVLY [PRAME 433-441 …]
2 | GTLHLERLAY [PRAME 453-462 GTLHLERLAY]

Each binder was assayed against T7, HLA-B62 (B*1501) (human) (assay: competition vs YLGEFSC(FI)TY on stripped B-LCL, FACS).
T7 construct: HLA class I on acid-stripped EBV-transformed B cells (B-LCL)

IC50 [µM] | Binder
2.39 | GQHLHLETF [PRAME 89-97 GQHLHLETF]
2.41 | LQHLIGLSNL [PRAME 427-436 LQHLIGLSNL]
< 1 | ALYVDSLFF [PRAME 300-308 ALYVDSLFF]
2.56 | LLRHVMNPL [PRAME 316-324 LLRHVMNPL]

The binders below were run against T8, HLA-A3 (A*0301) (human) (assay: competition vs KVFPC(FI)ALINK on stripped B-LCL, FACS).
T8 construct: HLA class I on acid-stripped EBV-transformed B cells (B-LCL)

IC50 [µM] | Binder
4 | HLIGLSNLTH [PRAME 429-438 HLIGLSNLTH]
< 1 | SMSVWTSPR (also called PRA16-24; PRA(16-24)) [PRAME 16-24 SMSVWTSPR]
< 1 | CLPLGVLMK [PRAME 80-88 CLPLGVLMK]
0.7 | CTWKLPTLAK [PRAME 242-251 CTWKLPTLAK]

The binders below were run against T9, HLA-B62 (B*1501) (human) (assay: cell competition vs YLGEFSC(FI)TY, stripped BSM B-LCL, FACS).
T9 construct: Acid-stripped B-LCL

IC50 [µM] | Binder
2.39 | GQHLHLETF (also called start 89) [PRAME peptide GQHLHLETF]
2.41 | LQHLIGLSNL (also called start 427) [PRAME peptide LQHLIGLSNL]
2.56 | LLRHVMNPL (also called start 316) [PRAME peptide LLRHVMNPL]
1.66 | VLYPVPLESY (also called start 439) [PRAME peptide VLYPVPLESY]
< 1 | ALYVDSLFF (also called start 300) [PRAME peptide ALYVDSLFF]

These binders were tested against T10, HLA-B61 (B*4002) (human) (assay: cell competition vs GEFGGC(FI)GSV, stripped Swei007 B-LCL, FACS).
T10 construct: Acid-stripped B-LCL

IC50 [µM] | Binder
< 1 | LETFKAVL (also called start 94) [PRAME peptide LETFKAVL]
< 1 | DEALAIAAL (also called start 37) [PRAME peptide DEALAIAAL]
< 1 | RELFPPLFM (also called start 50) [PRAME peptide RELFPPLFM]
< 1 | RELFPPLFMA (also called start 50) [PRAME peptide RELFPPLFMA]

Each binder was assayed against T11, HLA-B60 (B*4001) (human) (assay: competition vs KESTC(FI)HLVL on stripped B-LCL, FACS).
T11 construct: HLA class I on acid-stripped EBV-transformed B cells (B-LCL)

IC50 [µM] | Binder
1.55 | DEALAIAAL [PRAME 37-45 DEALAIAAL]
1.48 | RELFPPLFM [PRAME 50-58 RELFPPLFM]
2.91 | KDEALAIAAL [PRAME 36-45 KDEALAIAAL]

Each binder was assayed against T12, HLA-A1 (A*0101) (human) (assay: competition vs YLEPAC(FI)AKY on stripped B-LCL, FACS).
T12 construct: HLA class I on acid-stripped EBV-transformed B cells (B-LCL)

IC50 [µM] | Binder
1 | LSHIHASSY [PRAME 267-275 LSHIHASSY]
1 | FLSLQCLQALY [PRAME 292-302 FLSLQCLQALY]
< 1 | CSQLTTLSFY [PRAME 405-414 CSQLTTLSFY]
2 | SLQCLQALY [PRAME 294-302 SLQCLQALY]
3 | YISPEKEEQY [PRAME 275-284 YISPEKEEQY]

These binders were tested against T13, HLA-B60 (B*4001) (human) (assay: cell competition vs KESTC(FI)HLVL, stripped DKB B-LCL, FACS).
T13 construct: Acid-stripped B-LCL

IC50 [µM] | Binder
1.55 | DEALAIAAL (also called start 37) [PRAME peptide DEALAIAAL]
1.48 | RELFPPLFM (also called start 50) [PRAME peptide RELFPPLFM]
2.91 | KDEALAIAAL (also called start 36) [PRAME peptide KDEALAIAAL]
< 1 | YEDIHGTLHL (also called start 448) [PRAME peptide YEDIHGTLHL]

These binders were tested against T14, HLA-B8 (B*0801) (human) (assay: cell competition vs FLRGRAC(FI)GL, stripped Vavy B-LCL, FACS).
T14 construct: Acid-stripped B-LCL

IC50 [µM] | Binder
< 1 | YLHARLREL (also called start 462) [PRAME peptide YLHARLREL]
1.67 | QMINLRRLLL (also called start 258) [PRAME peptide QMINLRRLLL]
< 1 | MINLRRLL (also called start 259) [PRAME peptide MINLRRLL]
< 1 | INLRRLLL (also called start 260) [PRAME peptide INLRRLLL]

What follows are binders tested against T15, HLA-B35 (B*3501) (human) (assay: competition vs NPDIVC(FI)YQY on stripped B-LCL, FACS).
T15 construct: HLA class I on acid-stripped EBV-transformed B cells (B-LCL)

IC50 [µM] | Binder
< 1 | LPRELFPPL [PRAME 48-56 LPRELFPPL]
2.6 | GACDELFSY [PRAME 186-194 GACDELFSY]
1.58 | LPRELFPPLF [PRAME 48-57 LPRELFPPLF]
0.11 | LPTLAKFSPY [PRAME 246-255 LPTLAKFSPY]
< 1 | FPPLFMAAF [PRAME 53-61 FPPLFMAAF]
1.98 | SPYLGQMINL [PRAME 253-262 SPYLGQMINL]
